Reference: patent publication US20140087995A1 (published 2014)
Numbered stars: 1 amine (or outer) side, 2 acyl side, 3 side chain; on linkers, the order of the positions; unused ones are H or OH. Bridge positions count the residues as written; N and C are the ends. Side chains are listed from the residue outwards. Ends that are not written are not given here. * marks the point of attachment. C20 diacid = O=C(O)CCCCCCCCCCCCCCCCCCC(=O)*; γGlu = O=C(O)[C@H](CCC(=O)[*:2])N[*:1]

T1: human calcitonin receptor (human, UniProt P30988 25-474)
T1 construct: whole, on cells; also called hCTR; hCT
T1 sequence (looked up): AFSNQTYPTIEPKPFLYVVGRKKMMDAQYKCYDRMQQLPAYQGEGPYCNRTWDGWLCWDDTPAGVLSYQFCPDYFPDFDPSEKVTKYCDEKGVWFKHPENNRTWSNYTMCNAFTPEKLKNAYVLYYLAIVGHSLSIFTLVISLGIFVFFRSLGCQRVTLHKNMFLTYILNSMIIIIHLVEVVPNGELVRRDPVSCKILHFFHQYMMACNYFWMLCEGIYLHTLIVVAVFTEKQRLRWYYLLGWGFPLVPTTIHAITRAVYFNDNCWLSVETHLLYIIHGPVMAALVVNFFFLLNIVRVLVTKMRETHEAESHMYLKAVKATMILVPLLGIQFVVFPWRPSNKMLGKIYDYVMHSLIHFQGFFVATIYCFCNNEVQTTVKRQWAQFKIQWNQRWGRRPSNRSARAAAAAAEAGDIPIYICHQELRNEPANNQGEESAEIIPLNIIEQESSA

T2: rat amylin receptor (rat calcitonin receptor + rat RAMP 3) (rat, UniProt P32214 25-516; Q9JJ73 23-147)
T2 construct: whole, on cells; also called rAmylin-R; rat amylin 3(a) receptor
T2 sequence (looked up) 1: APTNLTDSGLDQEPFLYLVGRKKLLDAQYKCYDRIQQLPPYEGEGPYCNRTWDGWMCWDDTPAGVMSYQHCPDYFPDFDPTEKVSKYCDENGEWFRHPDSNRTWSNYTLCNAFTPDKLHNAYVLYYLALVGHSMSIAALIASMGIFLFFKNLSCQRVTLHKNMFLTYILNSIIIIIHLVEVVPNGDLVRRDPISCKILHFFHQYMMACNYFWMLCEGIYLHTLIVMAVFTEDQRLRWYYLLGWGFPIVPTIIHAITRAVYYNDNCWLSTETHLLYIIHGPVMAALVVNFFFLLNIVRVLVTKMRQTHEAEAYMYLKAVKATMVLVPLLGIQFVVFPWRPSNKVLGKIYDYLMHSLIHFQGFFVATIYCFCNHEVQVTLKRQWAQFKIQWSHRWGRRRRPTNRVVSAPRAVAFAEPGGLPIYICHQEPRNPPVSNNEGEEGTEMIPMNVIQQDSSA
T2 sequence (looked up) 2: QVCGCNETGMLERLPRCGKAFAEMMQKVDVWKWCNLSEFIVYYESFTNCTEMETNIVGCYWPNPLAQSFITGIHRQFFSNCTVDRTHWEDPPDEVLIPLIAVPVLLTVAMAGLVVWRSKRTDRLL

T3: rat calcitonin receptor (rat, UniProt P32214 25-516)
T3 construct: whole, on cells; also called rCTR; rat calcitonin (a) receptor
T3 sequence (looked up): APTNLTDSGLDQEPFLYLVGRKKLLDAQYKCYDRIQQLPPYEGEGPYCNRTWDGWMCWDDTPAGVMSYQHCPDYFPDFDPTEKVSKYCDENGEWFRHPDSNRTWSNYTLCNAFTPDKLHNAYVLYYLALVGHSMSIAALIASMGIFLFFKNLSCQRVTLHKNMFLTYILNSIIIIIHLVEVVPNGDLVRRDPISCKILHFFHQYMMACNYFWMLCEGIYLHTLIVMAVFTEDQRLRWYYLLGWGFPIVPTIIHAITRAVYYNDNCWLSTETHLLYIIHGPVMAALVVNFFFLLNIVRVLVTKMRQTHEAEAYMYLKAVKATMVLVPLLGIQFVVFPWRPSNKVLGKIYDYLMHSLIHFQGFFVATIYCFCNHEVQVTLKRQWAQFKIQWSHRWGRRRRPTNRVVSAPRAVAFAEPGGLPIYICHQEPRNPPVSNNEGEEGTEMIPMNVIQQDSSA


How the values were obtained:
[1] = target: T1, human calcitonin receptor; assay: ratio of binding IC50s: human calcitonin receptor over human amylin receptor (reference)
In short: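 IC₅₀ values were derived by one-site competition analysis of SPA counts. Cell membranes (35 ng/μL) with SPA beads were incubated with test compounds for 120 min at 25° C in Hepes buffer, pH 7.4, containing CaCl2, MgCl₂, OA and Tween20.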

[2] = target: T2, rat amylin receptor (rat calcitonin …); assay: SPA competition with 125I-rat amylin, membranes of BHK cells with rat calcitonin receptor + rat RAMP3 (Assay VI)
rat calcitonin receptor [3] = target: T3, rat calcitonin receptor; assay: ratio of binding IC50s: rat calcitonin receptor over rat amylin receptor (reference)
rat calcitonin receptor [4] = target: T3, rat calcitonin receptor; assay: SPA competition with 125I-calcitonin, membranes of BHK cells with rat calcitonin receptor (Assay VIII)

Binder	Ratio hCT/hAmylin binding [1]	IC50 [2] [nM]	Ratio rCT/rAmylin binding (rat calcitonin receptor [3])	IC50 (rat calcitonin receptor [4]) [nM]
K([γGlu-γGlu-C20 diacid])CNTATCATQRLANFLRHSSPNFGAIPSSTNVGHNTY-NH2 (disulfide 2-7; N-terminus assumed; SMILES CC[C@H](C)[C@H](NC(=O)[C@H](C)NC(=O)CNC(=O)[C@H](Cc1ccccc1)NC(=O)[C@H](CC(N)=O)NC(=O)[C@@H]1CCCN1C(=O)[C@H](CO)NC(=O)[C@H](CO)NC(=O)[C@H](Cc1c[nH]cn1)NC(=O)[C@H](CCCNC(=N)N)NC(=O)[C@H](CC(C)C)NC(=O)[C@H](Cc1ccccc1)NC(=O)[C@H](CC(N)=O)NC(=O)[C@H](C)NC(=O)[C@H](CC(C)C)NC(=O)[C@H](CCCNC(=N)N)NC(=O)[C@H](CCC(N)=O)NC(=O)[C@@H](NC(=O)[C@H](C)NC(=O)[C@@H]1CSSC[C@H](NC(=O)[C@@H](N)CCCCNC(=O)CC[C@H](NC(=O)CC[C@H](NC(=O)CCCCCCCCCCCCCCCCCCC(=O)O)C(=O)O)C(=O)O)C(=O)N[C@@H](CC(N)=O)C(=O)N[C@@H]([C@@H](C)O)C(=O)N[C@@H](C)C(=O)N[C@@H]([C@@H](C)O)C(=O)N1)[C@@H](C)O)C(=O)N1CCC[C@H]1C(=O)N[C@@H](CO)C(=O)N[C@@H](CO)C(=O)N[C@H](C(=O)N[C@@H](CC(N)=O)C(=O)N[C@H](C(=O)NCC(=O)N[C@@H](Cc1c[nH]cn1)C(=O)N[C@@H](CC(N)=O)C(=O)N[C@H](C(=O)N[C@@H](Cc1ccc(O)cc1)C(N)=O)[C@@H](C)O)C(C)C)[C@@H](C)O, synthetic analogue of human amylin; also called compound 86)	159	2.8	126	352
K([γGlu-C20 diacid])CNTATCATQRLAHFLRHSSPNFGAIPSSTNVGPNTY-NH2 (disulfide 2-7; N-terminus assumed; SMILES CC[C@H](C)[C@H](NC(=O)[C@H](C)NC(=O)CNC(=O)[C@H](Cc1ccccc1)NC(=O)[C@H](CC(N)=O)NC(=O)[C@@H]1CCCN1C(=O)[C@H](CO)NC(=O)[C@H](CO)NC(=O)[C@H](Cc1c[nH]cn1)NC(=O)[C@H](CCCNC(=N)N)NC(=O)[C@H](CC(C)C)NC(=O)[C@H](Cc1ccccc1)NC(=O)[C@H](Cc1c[nH]cn1)NC(=O)[C@H](C)NC(=O)[C@H](CC(C)C)NC(=O)[C@H](CCCNC(=N)N)NC(=O)[C@H](CCC(N)=O)NC(=O)[C@@H](NC(=O)[C@H](C)NC(=O)[C@@H]1CSSC[C@H](NC(=O)[C@@H](N)CCCCNC(=O)CC[C@H](NC(=O)CCCCCCCCCCCCCCCCCCC(=O)O)C(=O)O)C(=O)N[C@@H](CC(N)=O)C(=O)N[C@@H]([C@@H](C)O)C(=O)N[C@@H](C)C(=O)N[C@@H]([C@@H](C)O)C(=O)N1)[C@@H](C)O)C(=O)N1CCC[C@H]1C(=O)N[C@@H](CO)C(=O)N[C@@H](CO)C(=O)N[C@H](C(=O)N[C@@H](CC(N)=O)C(=O)N[C@H](C(=O)NCC(=O)N1CCC[C@H]1C(=O)N[C@@H](CC(N)=O)C(=O)N[C@H](C(=O)N[C@@H](Cc1ccc(O)cc1)C(N)=O)[C@@H](C)O)C(C)C)[C@@H](C)O, synthetic analogue of human amylin; also called compound 67)	51.6	0.172	85.4	14.7

The remaining binders from weak to strong by IC50 [2], led by results:

Ratio hCT/hAmylin binding [1]	IC50 [2] [nM]	Ratio rCT/rAmylin binding (rat calcitonin receptor [3])	IC50 (rat calcitonin receptor [4]) [nM]	Binder
87.2	1.42	42.9	61.1	K([γGlu-C20 diacid])CNTATCATQRLAHFLRHSSPNFGAIPSSTNVGHNTY-NH2 (disulfide 2-7; N-terminus assumed; SMILES CC[C@H](C)[C@H](NC(=O)[C@H](C)NC(=O)CNC(=O)[C@H](Cc1ccccc1)NC(=O)[C@H](CC(N)=O)NC(=O)[C@@H]1CCCN1C(=O)[C@H](CO)NC(=O)[C@H](CO)NC(=O)[C@H](Cc1c[nH]cn1)NC(=O)[C@H](CCCNC(=N)N)NC(=O)[C@H](CC(C)C)NC(=O)[C@H](Cc1ccccc1)NC(=O)[C@H](Cc1c[nH]cn1)NC(=O)[C@H](C)NC(=O)[C@H](CC(C)C)NC(=O)[C@H](CCCNC(=N)N)NC(=O)[C@H](CCC(N)=O)NC(=O)[C@@H](NC(=O)[C@H](C)NC(=O)[C@@H]1CSSC[C@H](NC(=O)[C@@H](N)CCCCNC(=O)CC[C@H](NC(=O)CCCCCCCCCCCCCCCCCCC(=O)O)C(=O)O)C(=O)N[C@@H](CC(N)=O)C(=O)N[C@@H]([C@@H](C)O)C(=O)N[C@@H](C)C(=O)N[C@@H]([C@@H](C)O)C(=O)N1)[C@@H](C)O)C(=O)N1CCC[C@H]1C(=O)N[C@@H](CO)C(=O)N[C@@H](CO)C(=O)N[C@H](C(=O)N[C@@H](CC(N)=O)C(=O)N[C@H](C(=O)NCC(=O)N[C@@H](Cc1c[nH]cn1)C(=O)N[C@@H](CC(N)=O)C(=O)N[C@H](C(=O)N[C@@H](Cc1ccc(O)cc1)C(N)=O)[C@@H](C)O)C(C)C)[C@@H](C)O, synthetic analogue of human amylin; also called compound 81)
45.5	0.581	35.8	20.8	K([γGlu-C20 diacid])CNTATCATQRLAHFLRHSSPNFGAIPSSTNVGSHTY-NH2 (disulfide 2-7; N-terminus assumed; SMILES CC[C@H](C)[C@H](NC(=O)[C@H](C)NC(=O)CNC(=O)[C@H](Cc1ccccc1)NC(=O)[C@H](CC(N)=O)NC(=O)[C@@H]1CCCN1C(=O)[C@H](CO)NC(=O)[C@H](CO)NC(=O)[C@H](Cc1c[nH]cn1)NC(=O)[C@H](CCCNC(=N)N)NC(=O)[C@H](CC(C)C)NC(=O)[C@H](Cc1ccccc1)NC(=O)[C@H](Cc1c[nH]cn1)NC(=O)[C@H](C)NC(=O)[C@H](CC(C)C)NC(=O)[C@H](CCCNC(=N)N)NC(=O)[C@H](CCC(N)=O)NC(=O)[C@@H](NC(=O)[C@H](C)NC(=O)[C@@H]1CSSC[C@H](NC(=O)[C@@H](N)CCCCNC(=O)CC[C@H](NC(=O)CCCCCCCCCCCCCCCCCCC(=O)O)C(=O)O)C(=O)N[C@@H](CC(N)=O)C(=O)N[C@@H]([C@@H](C)O)C(=O)N[C@@H](C)C(=O)N[C@@H]([C@@H](C)O)C(=O)N1)[C@@H](C)O)C(=O)N1CCC[C@H]1C(=O)N[C@@H](CO)C(=O)N[C@@H](CO)C(=O)N[C@H](C(=O)N[C@@H](CC(N)=O)C(=O)N[C@H](C(=O)NCC(=O)N[C@@H](CO)C(=O)N[C@@H](Cc1c[nH]cn1)C(=O)N[C@H](C(=O)N[C@@H](Cc1ccc(O)cc1)C(N)=O)[C@@H](C)O)C(C)C)[C@@H](C)O, synthetic analogue of human amylin; also called compound 66)
63	0.42	42.8	18	K([γGlu-C20 diacid])CNTATCATQRLAHFLRHSSPNFGAIPSSTPVGSNTY-NH2 (disulfide 2-7; N-terminus assumed; SMILES CC[C@H](C)[C@H](NC(=O)[C@H](C)NC(=O)CNC(=O)[C@H](Cc1ccccc1)NC(=O)[C@H](CC(N)=O)NC(=O)[C@@H]1CCCN1C(=O)[C@H](CO)NC(=O)[C@H](CO)NC(=O)[C@H](Cc1c[nH]cn1)NC(=O)[C@H](CCCNC(=N)N)NC(=O)[C@H](CC(C)C)NC(=O)[C@H](Cc1ccccc1)NC(=O)[C@H](Cc1c[nH]cn1)NC(=O)[C@H](C)NC(=O)[C@H](CC(C)C)NC(=O)[C@H](CCCNC(=N)N)NC(=O)[C@H](CCC(N)=O)NC(=O)[C@@H](NC(=O)[C@H](C)NC(=O)[C@@H]1CSSC[C@H](NC(=O)[C@@H](N)CCCCNC(=O)CC[C@H](NC(=O)CCCCCCCCCCCCCCCCCCC(=O)O)C(=O)O)C(=O)N[C@@H](CC(N)=O)C(=O)N[C@@H]([C@@H](C)O)C(=O)N[C@@H](C)C(=O)N[C@@H]([C@@H](C)O)C(=O)N1)[C@@H](C)O)C(=O)N1CCC[C@H]1C(=O)N[C@@H](CO)C(=O)N[C@@H](CO)C(=O)N[C@H](C(=O)N1CCC[C@H]1C(=O)N[C@H](C(=O)NCC(=O)N[C@@H](CO)C(=O)N[C@@H](CC(N)=O)C(=O)N[C@H](C(=O)N[C@@H](Cc1ccc(O)cc1)C(N)=O)[C@@H](C)O)C(C)C)[C@@H](C)O, synthetic analogue of human amylin; also called compound 62)
